The chains are these.
B1: H4H12884P (antibody, human IgG4 S228P, kappa, V domains shown)
VH: QVQLQESGPGLVKPSQTLSLTCTVSGGSISSGGYYWSWIRQHPGKGLEWIGFIYYSGKTYYNPSLKSRLTISVDTSKSQFSLKLRSVTAADTAVYYCARLGYTNSAGWFDPWGQGTLVTVSS
VL: DIQMTQSPSSLSASVGDRVTITCRASQSISSYLNWYQQKPGKAPNLLIYAASSLQSGVPSRFSGSGSGTDFTLTISSLQPEDLATYYCQQSYTTPFTFGPGTKVDIKR
notes: anti-IL2Rγ monoclonal antibody expressed with human IgG4 Fc
B2: H4H12890P (antibody, human IgG4 S228P, kappa, V domains shown)
VH: EVQLVESGGGLVQPGGSLRLSCAASGFTFNNYAMHWVRQAPGKGLEYVSSISSSGGSTYYEDSVKGRFTISRDNSKNTLYLQMGSLRAEDMAVYYCARSFYGSGTYYDTFDMWGQGTMVTVSS
VL: B1 VL with V15I, S31R, N45K, G64A, L83F, T93S, P100Q, V104L, D105E
notes: as for B1
B3: H4H12899P (antibody, human IgG4 S228P, kappa, V domains shown)
VH: QVQLVESGGDLVKPGGSLRLSCATSGFTFSDFYMTWIRQAPGKGLEWISYISNSGSIVKYADSVKGRFTISRDNAKNSLYLQMNSLRAEDTAIYYCARFYGDRWGQGTLVTVSS
VL: DIQLTQSPSFLSASVGDRVTITCWASQGISTFLAWYQQKPGKAPKLLIYAASTLQSGVPSRFSGSGSGTDFTLTISSLQPEDFATYHCQQLNNYPWTFGQGTKVEIKR
notes: as for B1
B4: H4H12900P (antibody, human IgG4 S228P, kappa, V domains shown)
VH: QVQLVESGGGLVKPGGSLRLSCEASGFTFNDFYMTWIRQAPGKGLEWIAYISKSGDKMRYADSVKGRFSTSRDNAKNSLSLQMNSLRAEDTAVYYCARFYGDIWGQGTLVTVSS
VL: B3 VL with G28D, T31S, A34V, K45N, T53A, D70E, T85S, H87Y, Q89E
notes: as for B1
B5: H4H12886P (antibody, human IgG4 S228P, kappa, V domains shown)
VH: EVQLVESGGGLVKPGGSLRLSCAASGFTFSTAWMSWVRQSPGRGLEWVGRMKSKTDGGTTFYAAPVKGRFTISRDDSKNTLYLQMNSLKTEDTAVYYCTTGLVPAFYKYYGVDVWGQGTTVTVSS
VL: DIQMTQSPSSLSASVGDRITITCQASQDITNYLNWYQQKPGKAPNLLIYDASNLVTGVPSRFSGSGSGTDFTFTILSLQPEDIATYYCQQYDSLLTFGPGTKVDIKR
notes: as for B1
B6: H4H12889P (antibody, human IgG4 S228P, kappa, V domains shown)
VH: EVQLVESGGGLVQPGGSLRLSCAASGFIFSSYEMHWVRQAPGKGLEWISYISSSGTTIYYADSVKGRFTISRDNAKNSLYLHMNSLRAEDTAVYYCTRARITGTFDVFDIWGQGTMVTVSS
VL: DIQMTQSPSSLSASVGDRVTITCRASQSISSYLNWYQQKPGKAPKLLIFAASNLQSGVPSRFSGSRSGTDFTLTISSLQPEDFATYYCQQNYNIPYTFGQGTKLEIKR
notes: anti-IL2Rγ monoclonal antibody expressed with human IgG4 Fc; also called REGN7257

Changes are numbered by the printed parent chain.

One experiment has as its target T1, Human IL2Rγ extracellular domain expressed with a C-terminal myc-myc-hexahistidine tag (human).
T1 construct: also called hIL-2Rg-MMH; hIL-2RG-MMH
T1 chain: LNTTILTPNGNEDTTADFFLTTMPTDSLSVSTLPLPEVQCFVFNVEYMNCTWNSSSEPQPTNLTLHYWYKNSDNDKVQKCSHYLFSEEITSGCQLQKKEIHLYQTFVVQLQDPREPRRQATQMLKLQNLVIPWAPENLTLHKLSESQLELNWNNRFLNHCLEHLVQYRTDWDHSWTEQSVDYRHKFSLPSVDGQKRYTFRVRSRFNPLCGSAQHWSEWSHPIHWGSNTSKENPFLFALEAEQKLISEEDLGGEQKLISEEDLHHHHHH
Description: SPR Biacore 4000, mAb captured by anti-hFc, HBS-ET, 25C. Summed up:
(§1)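 KD and dissociative half-life come from rate constants obtained by 1:1 binding-model fits of real-time sensorgrams. Antibodies sit on an anti-human Fc capture surface, with HBS-ET (pH 7.4) as running buffer and an 8-10 minute dissociation phase.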
For the molecule B1, the “100 nM Ag Bound” value is 84 RU, binding was characterised by a dissociation constant (Kd) of 6.96 nM, the koff was determined as 0.00139 s⁻¹ and the kon turned out to be 199000 M⁻¹ s⁻¹. Moreover, the t1/2 is 8 min.
B2: the “100 nM Ag Bound” value turned out to be 48 RU; the affinity, expressed as Kd, was 4.91 nM; the koff worked out at 0.000333 s⁻¹; the kon was found to be 67900 M⁻¹ s⁻¹. Moreover, the t1/2 was found to be 35 min.
For the molecule B3, the “100 nM Ag Bound” value was 61 RU, binding was put at a Kd of 2.51 nM, the koff came out at 0.000458 s⁻¹ and the kon was determined as 182000 M⁻¹ s⁻¹. Moreover, the t1/2 turned out to be 25 min.
As to B4, the “100 nM Ag Bound” value was determined as 79 RU, the Kd is 1.29 nM, the koff turned out to be 0.000379 s⁻¹ and the kon turned out to be 293000 M⁻¹ s⁻¹. This molecule also returned a t1/2 of 30 min.
For B5, the “100 nM Ag Bound” value worked out at 60 RU, the equilibrium dissociation constant (Kd) is 2.02 nM, the koff is 0.00027 s⁻¹ and the kon is 134000 M⁻¹ s⁻¹. Moreover, the t1/2 is 43 min.
Take B6: the “100 nM Ag Bound” value worked out at 64 RU; the affinity, expressed as Kd, was 1.41 nM; the koff was 0.00042 s⁻¹; the kon was 298000 M⁻¹ s⁻¹. For the same molecule, the t1/2 was 28 min.

Another experiment addresses T2, Macaca fascicularis IL2Rγ extracellular domain expressed with a C-terminal myc-myc-hexahistidine tag (Macaca fascicularis).
T2 construct: also called mfIL-2Rg-MMH; mfIL-2RG-MMH
T2 chain: T1 chain with T14A, A16T, T22S, H141R, T228S
The experiment is described as above. Summed up: as §1
As for B1, the “100 nM Ag Bound” value came to 82 RU, binding was put at a Kd of 6.98 nM, the koff was 0.00121 s⁻¹ and the kon is 174000 M⁻¹ s⁻¹. The t1/2 stood at 10 min.
As to B2, the “100 nM Ag Bound” value turned out to be 37 RU; the affinity, expressed as Kd, was 5.16 nM; the koff is 0.000313 s⁻¹; the kon came to 60600 M⁻¹ s⁻¹. This molecule also returned a t1/2 of 37 min.
Taken in the same sequence, the figures for B3 were 54 RU, 4.01 nM, 0.000407 s⁻¹, 102000 M⁻¹ s⁻¹ and 28 min.
For B4 the same measures were 71 RU, 1.44 nM, 0.000335 s⁻¹, 232000 M⁻¹ s⁻¹ and 34 min.
For B5 the same measures were 57 RU, 2.45 nM, 0.000266 s⁻¹, 109000 M⁻¹ s⁻¹ and 43 min.
As to B6, the “100 nM Ag Bound” value was 59 RU, binding was put at a Kd of 1.74 nM, the koff came to 0.000404 s⁻¹ and the kon came to 233000 M⁻¹ s⁻¹. The same molecule registered a t1/2 of 29 min.

Another experiment deals with T1, Human IL2Rγ extracellular domain …. Description: SPR Biacore 4000, mAb captured by anti-hFc, HBS-ET, 37C. Summed up:
as §1
Background: In SPR one partner is held on a chip, and binding of the other changes the refractive index at the surface.
For B1, the “100 nM Ag Bound” value was 62 RU, the equilibrium dissociation constant (Kd) came to 13.1 nM, the koff was determined as 0.00336 s⁻¹ and the kon stood at 257000 M⁻¹ s⁻¹. The molecule also showed a t1/2 of 3.4 min.
For B2 the same measures were 27 RU, 14 nM, 0.00133 s⁻¹, 95100 M⁻¹ s⁻¹ and 9 min.
For B3 the same measures were 36 RU, 7.27 nM, 0.00249 s⁻¹, 342000 M⁻¹ s⁻¹ and 5 min.
For B4 the same measures were 43 RU, 3.66 nM, 0.00184 s⁻¹, 503000 M⁻¹ s⁻¹ and 6 min.
Take B5: the “100 nM Ag Bound” value was 52 RU, the Kd was 15.4 nM, the koff turned out to be 0.000956 s⁻¹ and the kon was determined as 61900 M⁻¹ s⁻¹. Besides, the t1/2 is 12 min.
With B6, the “100 nM Ag Bound” value was 32 RU; the affinity, expressed as Kd, was 3.99 nM; the koff came to 0.00185 s⁻¹; the kon came out at 465000 M⁻¹ s⁻¹. The t1/2 was 6 min.

The next experiment deals with T2, Macaca fascicularis IL2Rγ extracellular …. Kind of experiment: SPR Biacore 4000, mAb captured by anti-hFc, 37C, dissociation in PBS-T pH 7.4. Summed up:
(§2)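 Dissociation of receptor-MMH from Fc-captured IgG4 antibodies ran 6 minutes in PBS-T; kd was obtained by 1:1 curve fitting.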
For B1, the “100 nM Ag Bound (RU)” value amounted to 171 RU, the koff came out at 0.00147 s⁻¹ and the t1/2 was 8 min.
Taken in the same sequence, the figures for B2 were 82 RU, 0.000624 s⁻¹ and 19 min.
Taken in the same sequence, the figures for B3 were 160 RU, 0.000552 s⁻¹ and 21 min.
Taken in the same sequence, the figures for B4 were 166 RU, 0.000623 s⁻¹ and 19 min.
Consider B5, for which the “100 nM Ag Bound (RU)” value was determined as 145 RU, the koff was found to be 0.000471 s⁻¹ and the t1/2 is 25 min.
Taken in the same sequence, the figures for B6 were 147 RU, 0.000578 s⁻¹ and 20 min.

For the next experiment the target is unchanged. Description: SPR Biacore 4000, mAb captured by anti-hFc, 37C, dissociation in PBS-T pH 6.0. The procedure, abridged:
as §2
B1: the “100 nM Ag Bound (RU)” value stood at 135 RU, the koff came out at 0.00335 s⁻¹ and the t1/2 was 3.4 min.
For B2 the same measures were 71 RU, 0.00276 s⁻¹ and 4 min.
Taken in the same sequence, the figures for B3 were 122 RU, 0.00211 s⁻¹ and 5 min.
In the case of B4, the “100 nM Ag Bound (RU)” value worked out at 130 RU, the koff stood at 0.00277 s⁻¹ and the t1/2 turned out to be 4 min.
On to B5, for which the “100 nM Ag Bound (RU)” value is 109 RU, the koff was 0.00197 s⁻¹ and the t1/2 is 6 min.
Taken in the same sequence, the figures for B6 were 148 RU, 0.00183 s⁻¹ and 6 min.

For orientation: Kd means the equilibrium constant for the complex coming apart. A high value points to lower affinity. For orientation: koff means the rate constant with which the complex falls apart. A high value points to fast dissociation. As a reminder, the kon is the second-order rate constant of association. High values mean faster complex formation, low ones slower complex formation.

Source of the values: US20200247894A1 (Regeneron, published 2020).
